{
  "source": "the nanobody polyreactivity screen of Harvey et al. (2022)",
  "data": [
    {"assay": "yeast display, Sf9 membrane polyspecificity reagent, FACS + sequencing; frameworks hold sequencing errors", "summary_of_the_method": "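After 36–48 hours of galactose induction, yeast (Saccharomyces cerevisiae BJ5465) displaying a synthetic nanobody library were stained at 4 °C for 1 hour with 10% biotinylated, detergent-solubilized Sf9 membrane reagent. Streptavidin microbeads enriched the stained cells before FACS sorting into low and high (top ~1%) gates on anti-HA and streptavidin fluorescence. Each clone's polyreactivity label reflects its gate of origin.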", "values": [
      {"sequence": "QVQIVESGGGLVQAGGSLSLSCASSGSTIGDYAMGWYRQAPGKERELVAAINSGDSKNYADSVKGRFTISRDNAKNTVYLQMNSLKPEDTAVYYCAAEPLSISYVYYKYKYEYWGQGTQVTVSS", "polyreactivity (PSR sort gate)": "low polyreactivity"},
      {"sequence": "QVQIVESGGGLVQAVGSLRLSCAAYGSTFCANAMGCYRQAPGKERELVAAIRGTGGSTYADSVKGRFTISRDNAKNTVYLQMNSLKPEDTAVYYCNAKGRGWTAQYDYCGQGTQVTVSS", "polyreactivity (PSR sort gate)": "low polyreactivity"},
      {"sequence": "QVQIVESGGRLVQAGCSLRLSCAASGRIFTRYAMGWYRQAPGKERELVASIRHSGGSTYYADSVKGRFTISRDNAKNTVYLQMNSLKPEDTAVYYCAARGKKGTRYNYNYWGHGTQVTVSS", "polyreactivity (PSR sort gate)": "high polyreactivity"},
      {"sequence": "QVQIVESGGVLVQAGGSLRLRCAASGSTFNRYAMGWYRQAPGKERELVASITTSDSTNYADSVKGRFTISRDNAQNTVYLQMNRLKPEDTALYYCNAEVRGVWYTYDYWGQGTQVTVSS", "polyreactivity (PSR sort gate)": "low polyreactivity"},
      {"sequence": "QVQIVESGGVLVQPGGILRLSCAASGFTFDAYDMGWYRQAPGKERELVAANSWRGIDTTYADSVKWRFTISRDNAKNPVFLQMNSLKPEDTAVYYCAEFVSDATVGTSKGLDYWGQGTQVTVSS", "polyreactivity (PSR sort gate)": "low polyreactivity"},
      {"sequence": "QVQIVESGRGLVQAGGSLSLSCAASGNIFYRYTMGWYRQAPGKERELVAAISRTGGSTYYADSVKGRFTISRDNAKNTVYLQMNSLKPEDTAVYYCAVRYMDPPYFYSKRFGYWGQGTQVTVSS", "polyreactivity (PSR sort gate)": "high polyreactivity"},
      {"sequence": "QVQIVESRGGLVQAGGSLRLSCAASGSIIRYYVMGWYRQAPRKERELVASISYSVGRTYYADSVKGRFTISRDNAKNTVYLQMNSLKPEDSAVYYCASDRYWPYYSAYYTSYRMDYWGQGTQVTVSS", "polyreactivity (PSR sort gate)": "high polyreactivity"},
      {"sequence": "QVQIVESVGGLDQAGGSLRLSCAASGSKFVYYAIGSYRQAPAKERELVAAIDVSDGGTYYADSVKVRFSISRDNAKNTVYLQMNSLKPEVTAVYYCAADQGIDVPFICYDYWGQGTQVTVSS", "polyreactivity (PSR sort gate)": "high polyreactivity"},
      {"sequence": "QVQIVESVGGLFQAGGTLRLICAASGLTFRSYTMGWYRQAPGKERELVAAISSGGSTYYADSVKGRFTISRDNAKNTVYLQMNSLKPEDTAVYYCAARAPWPKWGYYYWGQGTQVTVSS", "polyreactivity (PSR sort gate)": "high polyreactivity"},
      {"sequence": "QVQIVESWGGLVQAGGSLRLSCDASGSIFTNANGWYRQAPGKERELVAAISSSGGSTYYADSVKGRFTISRDNAKNTVYLQMNSLKPEDTAVYYCAADHYGGRDYWGQGTQVTVSS", "polyreactivity (PSR sort gate)": "low polyreactivity"},
      {"sequence": "QVQLADSGGGLVQAGGSLRLICAASGTFGSNAMGWYIQAPGKERELVAAINSGGTTKYADSVKGRFTISRDNAKNTVYLQMNRLKPEDSALYYCNAREGVFSYTVAHDYWGQGTQVTVSS", "polyreactivity (PSR sort gate)": "low polyreactivity"},
      {"sequence": "QVQLAESGGCLVQAGGTLRLSCAASGSTSAKNVMGWYRQPPGKERELVAAISRSGGRTYYADSVKGRFTISRDNAKNTVFLQMNSLKPEVSAVYYCANDYGGYYSRYDYWGQGTQVTVSS", "polyreactivity (PSR sort gate)": "high polyreactivity"},
      {"sequence": "QVQLAESGGGFVQAGGTLRLTCAASGSIFTSNAMGWFRQAPGKERELVAPSSWRGTSTYYADSVKGRYTISRDNAKTTVYLQMNSLKPVDTAVYYCAKYRRFRPYGSNGIYDYWGQGTQVTVSS", "polyreactivity (PSR sort gate)": "high polyreactivity"},
      {"sequence": "QVQLAESGGGLVQAGGSLRLICAASGFTFSAYAMGWYRQAPGKERELVAAINTSGGSTYYADSVKGRFTISRDNAKNTVYLQMKSLKPEDTAVYYCASKYASLDRRRRKYDYWGQGTQVTVSS", "polyreactivity (PSR sort gate)": "high polyreactivity"},
      {"sequence": "QVQLAESGGGLVQAGGSLRLSCAASGFILHHYTMGWYRQAPGKERELVAAISRSGGSTYYADSVKGRFTISRDNAKNTVYLQMNSLKPEDTAVYYCAKRVSTYGFSGYDYWGQGSQVTVSS", "polyreactivity (PSR sort gate)": "high polyreactivity"},
      {"sequence": "QVQLAESGGGLVQAGGSLRLSCAASGRIFYGYTMGWYRQAPGKERELVAAITWSGGSTYYADSVKGRFTISRDNAKNTVYLQMNSLKPKDTAVYYCAATLGNAADYDYGYWGQGTQVTVSS", "polyreactivity (PSR sort gate)": "high polyreactivity"},
      {"sequence": "QVQLDESGGGLVQAGGSLRLSCAASGHIFFYYTMGWSRQAPRKEREFVAGITIGGSTNYADSVKGRFTISRDNAKYTVYLQKNSLKPEDTAVYYCNVVTYVYIYSYWEYYYWGQGTQVTVSS", "polyreactivity (PSR sort gate)": "low polyreactivity"},
      {"sequence": "QVQLDESGGGLVQAGGSLRLSCAASGSTFNIYAMGWYRRAPWQERELVAAITRGGSTNYADSVKGRFTISRDNAKNTVYLQMNSLKPEDTAVYYCAARTAYFTSYGRYYYWGQGTQVTVSS", "polyreactivity (PSR sort gate)": "high polyreactivity"},
      {"sequence": "QVQLEDSGGGLVQAGGSLRLSCAASGFTFGVYAMGWYRQAPGKQRELVAAITSGGGRTYADSVKWRFTISRDNAKNTVYLQMNSLKPEDTAVYYCAAEGVPLRVVWDYSYWDYDYDYWGQGTQVTVSS", "polyreactivity (PSR sort gate)": "low polyreactivity"},
      {"sequence": "QVQLEDSGGGLVQAGGSLRLSCAASGRIFTRYAMGWYRQAPGKERELVAVITRSGGSTYYADSVKGRFTISRDNAKNTVYLQMNSLKPEDTAVYYCAARYYWSVYADQGDYWGQGTQVTVSS", "polyreactivity (PSR sort gate)": "low polyreactivity"},
      {"sequence": "QVQLEDSGGGLVQAGGSLRLSCAASGSTISYYTMGWYRQAPGKERELVAAISSGGSTYADSVKGRFTISRDNAKNTVYLQMNSLKPDDTAVYYCAVDGFDYGPSQALDYWGPGTQVTVSS", "polyreactivity (PSR sort gate)": "low polyreactivity"},
      {"sequence": "QVQLEESAGGLVQAGGSLRLSCAASGSIFAYYAMGWYRQAPGKERELVAVIRSGGSTYYADSVKGRFTISRDNAKNTVYFQMNSLKPEDTAVYYCAARSYRPTRGDYWGQGTQVTVSS", "polyreactivity (PSR sort gate)": "high polyreactivity"},
      {"sequence": "QVQLEESCGGLVQAGGSLRLSCAAYGRIFGNYAMGWYRQATGKETELVAAITRGSTYYADSVKGRFTISRDNSKNTVYLQMNSLKPEDTAFYYCNARPRVPGVLYLYDYWGQGTQVTVSS", "polyreactivity (PSR sort gate)": "high polyreactivity"},
      {"sequence": "QVQLEESGAGLVQAGGSLRLCCAASGFTIGYNVMGWYRQAPGKERELVATISWNGARTYYADSVKGRFTISRDNAKNTVYLQMNSLKPEDTAVYYCAARRYYRGEYDYWGQGTKVTVSS", "polyreactivity (PSR sort gate)": "low polyreactivity"},
      {"sequence": "QVQLEESGGALVQAGGSLRLSCAASGFTFYRNALGWNRQAPGQERELVGAITRGGSTTYADSVKGRFTISRDNAKNTVYLQMNRMKPEDTAVYYCAAPKYIWYRDLNYWGQGTQVTVSS", "polyreactivity (PSR sort gate)": "high polyreactivity"},
      {"sequence": "QVQLEESGGCLVQAGGSLRLSCAASGFTIRDYTMGWSRQAPGKERELVAPISRSGGSTYYADSVKGRFTISRDNATNTVYLQMYSLKPEDTAVYYFAALWHAVFYADYDYWGQGTQVSVSS", "polyreactivity (PSR sort gate)": "high polyreactivity"},
      {"sequence": "QVQLEESGGCLVQAGGSLRLSCAASGITFVLYAMGWYRQAPGTERELVAAINIDGNTNYADSVKGRFTISRDNAKNTVYLQMNSLKPEDTAVYYCAATFVPAQSRYTCSKYDYWGQGTQVTVSS", "polyreactivity (PSR sort gate)": "low polyreactivity"},
      {"sequence": "QVQLEESGGCLVQAGGSLRLSCAASGITFYVYAMGWSRQAPGKERELVAAISSSGGSTYYADSVTGRFTISRDNAKNTGALQMNSLKPEDTAVYYCPADKCFYYGRKYGKYDYWGQGTQVTVSS", "polyreactivity (PSR sort gate)": "high polyreactivity"},
      {"sequence": "QVQLEESGGGIVQAGGSLRLSCAASGITFRFYAMGWYRPAPGKERELVAAITRSGSSTYYADSVKGRFTISRDNAKNTVYLQMNSLKPEDTAVYYCATDPYWNRPYVKYDYWGQGTLVTVSS", "polyreactivity (PSR sort gate)": "high polyreactivity"},
      {"sequence": "QVQLEESGGGIVQAGGSLRLSCAASGRIFGYYAMGWYRQAPGKERELVASIRRGTRTNYADSVKGRFTISRDNAKNTVYLQMNSLKPEDTAVYYCAATRFQFTTTPWYDYWGQGTQVTVSS", "polyreactivity (PSR sort gate)": "high polyreactivity"},
      {"sequence": "QVQLEESGGGIVQAGGSLRLSCAASGRTFYGYAMGWYRQAPGKEREFVAAINERGTSTYYADSVKGRFTISRDNAKNTVYLQMNSLKPEDTAVYYCAARYLRTQYQDGTRSRIQLDYWGQGTQVTVSS", "polyreactivity (PSR sort gate)": "high polyreactivity"}
    ]}
  ]
}
